Values quoted from earlier work in PMC3134397.

Columns and labels:
[1] = target: UL18 (Human betaherpesvirus 5) (UniProt P08560); experiment: SPR
RAE-1β (Mus musculus) = RAE-1β (Mus musculus) (UniProt O08603); experiment: AUC
RAE-1γ (Mus musculus) = RAE-1γ (Mus musculus) (UniProt O08604); experiment: AUC
RAE-1δ (Mus musculus) = RAE-1δ (Mus musculus) (UniProt Q9JI58); experiment: AUC
Sequence of UniProt Q9JI58 (Q9JI58 29-225, stated change not applied): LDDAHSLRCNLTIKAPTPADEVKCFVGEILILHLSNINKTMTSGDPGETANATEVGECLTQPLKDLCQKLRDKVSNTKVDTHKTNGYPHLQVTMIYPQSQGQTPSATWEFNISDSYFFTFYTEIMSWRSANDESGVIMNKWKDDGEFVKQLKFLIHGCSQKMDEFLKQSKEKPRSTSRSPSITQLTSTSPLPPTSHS

Sequence of UniProt O08603 (O08603 29-229): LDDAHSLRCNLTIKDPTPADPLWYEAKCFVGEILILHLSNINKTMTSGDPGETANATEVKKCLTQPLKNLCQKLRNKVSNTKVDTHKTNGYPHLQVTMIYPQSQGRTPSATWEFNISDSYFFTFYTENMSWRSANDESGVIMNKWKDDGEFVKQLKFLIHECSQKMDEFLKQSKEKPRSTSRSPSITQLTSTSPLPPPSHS
Sequence of UniProt O08604 (O08604 29-227): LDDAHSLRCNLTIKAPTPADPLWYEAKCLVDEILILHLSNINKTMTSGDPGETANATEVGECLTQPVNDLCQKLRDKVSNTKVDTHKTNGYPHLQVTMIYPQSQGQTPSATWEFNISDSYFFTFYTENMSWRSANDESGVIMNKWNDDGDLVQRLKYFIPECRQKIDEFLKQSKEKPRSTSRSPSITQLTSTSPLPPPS

## LIR1 (from UniProt Q8NHL6)
[1]
  Kd: 10 nM

## m152 (from UniProt Q83156)
RAE-1β (Mus musculus)
  Kd: 3000 nM
RAE-1γ (Mus musculus)
  Kd: 1000 nM
RAE-1δ (Mus musculus)
  Kd: 30000 nM
